Measured values taken from patent publication US5844093.

Key:
[1] = target: EGFR on EGFR-bearing tumor cells (human) (UniProt P00533); test: flow cytometry, HT29 cells, crude bacterial supernatant
[2] = target: EGFR on EGFR-bearing tumor cells (human) (UniProt P00533); test: flow cytometry, A431 cells, crude bacterial supernatant
[3] = target: EGFR on EGFR-bearing tumor cells (human) (UniProt P00533); test: flow cytometry, MDA MB 231 cells, crude bacterial supernatant

Substance: scFv derived from MAb 425
- mean of arbritary fluorescence units (arbitrary fluorescence units) [1]: 2.5
- mean of arbritary fluorescence units (arbitrary fluorescence units) [2]: 85.5
- mean of arbritary fluorescence units (arbitrary fluorescence units) [3]: 21.3
